Laboratory results from the supplement of paper PMC10567573.
± gives the standard deviation.

Assay: protein stability index of a GFP-peptide fusion (GPS, HEK-293T) (PSI 1-6); higher = more stable
[1] = treatment: DMSO, c terminus: a fixed tail appended
[2] = treatment: MLN4924 1 uM, 8 h, c terminus: a fixed tail appended
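Further: 24-mer peptide tiles fused after GFP, lentivirally expressed, FACS-sorted into six equal bins by GFP/DsRed ratio, decoded by Illumina sequencing, PSI is the read-weighted mean bin number.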

Row | Sequence | protein stability index [1] | protein stability index [2] | protein stability index (treatment: DMSO, c terminus: native) | protein stability index (treatment: MLN4924 1 uM, 8 h, c terminus: native)
1 | CLMIAAYKGHTDVVRYLLEQRADP [FEM1B] | 2.27 ± 0.14 | 2.35 ± 0.17 |  | 
2 | FIDKEDLKDTYASLGKTNVKDDEL [MYL5] | 4.8 ± 0.15 | 4.92 ± 0.19 |  | 
3 | SLAHCRHDGEDVACPQGGVQYGAG [LOXL2] | 4.65 ± 0.5 | 3.96 ± 0.41 |  | 
4 | NFSVDRWERKEGGGGISCVLQDGC [CPOX] | 3.8 ± 0.2 | 3.8 ± 0.33 |  | 
5 | HTRSWAVLKLLLLLLLFGVAGGLV [LRRC59] | 2.56 ± 0.44 | 2.44 ± 0.35 |  | 
6 | SDTEAQCEVMQEIVDQVLEEDFDS [INTS3] | 5.56 ± 0.091 | 5.42 ± 0.34 |  | 
7 | TLLQDHENQRLFEMLGRKCLTLAT [WAS] | 2.37 ± 0.29 | 2.33 ± 0.28 |  | 
8 | PPVLSFRLVHTTAIEHFQPNADLL [FCHO1] | 2.54 ± 0.15 | 2.17 ± 0.25 |  | 
9 | TQIGFADLMGVLTKGVREVERALQ [FEM1A] | 2.29 ± 0.61 | 2.28 ± 0.45 |  | 
10 | KQNARFLTSMRRLSSIKRDTNSIA [STX11] | 3.12 ± 0.25 | 3.21 ± 0.2 |  | 
11 | NVINHFYCDLPQLFQLSCSSTQLN [OR3A1] | 3 ± 0.66 | 2.84 ± 0.34 |  | 
12 | WTFYPRFSSNIHTYHVGKQCFFNG [SPATS1] | 2.74 ± 0.53 | 2.24 ± 0.33 |  | 
13 | EGMDFHRFYFENLLAKNSKPIHTT [CAMK2B] | 2.52 ± 0.36 | 2.49 ± 0.31 |  | 
14 | PQGLFRGGKSGELEQEEERLSKEW [CHGA] | 5.19 ± 0.39 | 5.42 ± 0.19 |  | 
15 | VWTSPRRLVELAGQSLLKDEALAI [PRAME] | 3.36 ± 0.15 | 3.34 ± 0.21 |  | 
16 | TAQHQRRLAAIAQEKDQEMERLRE [FBF1] | 5.36 ± 0.17 | 5.42 ± 0.14 |  | 
17 | SCKACGYRGMLDTHHKLCTFILKN [EIF5] | 2.55 ± 0.35 | 2.77 ± 0.46 |  | 
18 | LRYYYDKNIIHKTSGKRYVYRFVC [ETS2] | 2.79 ± 0.48 | 2.53 ± 0.62 |  | 
19 | TLVQDLANAFQQEAQTSGKERLLL [CHIT1] | 3.16 ± 0.3 | 2.91 ± 0.19 |  | 
20 | KNGQGFALVYSITAQSTFNDLQDL [RAP1B] | 2.23 ± 0.42 | 2.17 ± 0.45 |  | 
21 | ATGMFLQYTVPGTEGVTQLKLTVV [ZFYVE21] | 3.29 ± 0.56 | 2.9 ± 0.46 |  | 
22 | EATTSDPQDLDMKKHRCKCCSIM [PALM] |  |  | 4.3 ± 0.24 | 4.58 ± 0.23
23 | LSVAPQIGMPFNQLGTLAGSKYYN [SMG5] | 2.67 ± 0.15 | 2.71 ± 0.011 |  | 

Row | Sequence | protein stability index [1] | protein stability index [2] | protein stability index (treatment: DMSO, c terminus: native) | protein stability index (treatment: MLN4924 1 uM, 8 h, c terminus: native)
24 | GMADVGTVCDPARSCAIVEDDGLQ [ADAMTS4] | 4.62 ± 1.1 | 5.33 ± 0.088 |  | 
25 | GLDPEPLPLMDLCRRSVRLALGRE [SPSB1] | 4.02 ± 0.61 | 3.62 ± 0.2 |  | 
26 | LTDFYPVRRSSRKSKAELQSEERK [KMT5A] | 3.04 ± 0.39 | 3.49 ± 0.9 |  | 
27 | CGSFQVTTGLQVPSAVRCLQKRGS [FSD1] | 2.96 ± 0.2 | 2.8 ± 0.17 |  | 
28 | AGNCPECGTPLRKSNFRVQLFEDP [MNAT1] | 3.62 ± 0.33 | 4.08 ± 0.2 |  | 
29 | GQVIWGMSWAKLARQATNLKVNFF [FBXO39] | 2.2 ± 0.72 | 2.2 ± 0.52 |  | 
30 | LSTHNWTYWQCGQYLGVGPGAHGR [RSAD1] | 2.31 ± 0.21 | 1.99 ± 0.27 |  | 
31 | EFSIDNYPTDNTKVMIFKSSYSLS [MIA2] | 2.75 ± 0.64 | 2.48 ± 0.3 |  | 
32 | MASQSQGIQQLLQAEKRAAEKVSE [ATP6V1G1] | 4.93 ± 0.36 | 5.385 ± 0.052 |  | 
33 | QPILQIDNARLAADDFRTKYEHEL [KRT16] | 4.6 ± 0.2 | 4.31 ± 0.45 |  | 
34 | HVPLQRLSLLVHNVSVMHKSLDNM [FBXO33] | 2.01 ± 0.22 | 2.3 ± 0.12 |  | 
35 | SRVTASSGITIPKPPKPPDKPLMP [SMARCE1] | 3.78 ± 0.25 | 3.94 ± 0.18 |  | 
36 | PDNEQLMEEVISPRQVSYTPQHHE [IQUB] | 5.16 ± 0.4 | 5.32 ± 0.19 |  | 
37 | ETALYRKMLGNPSRLPAKCPGKGA [FKBP8] | 3.61 ± 0.31 | 3.62 ± 0.3 |  | 
38 | GSHPQQTQKLEEIKENAQDTMRQI [TOR1AIP2] | 5.27 ± 0.26 | 5.38 ± 0.24 |  | 
39 | TYVGALFNGLTLLLMAVVSMFTLP [RTN1] | 3 ± 0.58 | 3.43 ± 0.38 |  | 
40 | QVAMRCRCSSMHFLVAEWNEPSIN [SAT1] | 2.23 ± 0.53 | 2.27 ± 0.2 |  | 
41 | NRPIETYQVHDYLRSKLCSLYEND [PPP2R2B] | 2.97 ± 0.084 | 3.22 ± 0.16 |  | 
42 | LPVVNAVGEIVGIITRHNLTYEFL [CLCN6] | 3.07 ± 0.43 | 2.75 ± 0.66 |  | 
43 | DESLTDLEAQPYEAVFLRAVKLYN [P3H4] | 2.58 ± 0.21 | 2.71 ± 0.36 |  | 
44 | HSLVRSRHRIPEPEAAVLFRQMAT [TRIB3] | 3.18 ± 0.13 | 3.31 ± 0.15 |  | 
45 | AAESPDPPQSPQGASSLPTTMNYP [MAGEA3] | 5.23 ± 0.13 | 5.3 ± 0.1 |  | 
46 | NFSNYYVAHPPVTYSQPYPTWLPC [TENT5C] | 2.46 ± 0.5 | 2.17 ± 0.098 |  | 

Row | Sequence | protein stability index [1] | protein stability index [2] | protein stability index (treatment: DMSO, c terminus: native) | protein stability index (treatment: MLN4924 1 uM, 8 h, c terminus: native)
47 | LSELLRYHTSQSGDEMTSLSEYVS [HSP90AB1] | 3.27 ± 0.23 | 3.6 ± 0.21 |  | 
48 | ITRESHTHRDRPSQQQPLRNQVVS [CSNK1G1] | 4.49 ± 0.21 | 4.37 ± 0.23 |  | 
49 | PLLLRLPRICQRNLMSLLMAVRPS [FANCE] | 2.45 ± 0.34 | 2.56 ± 0.062 |  | 
50 | LPCFNGRVVSWLVSAEGSHPDPAP [DVL3] | 2.64 ± 0.24 | 2.53 ± 0.28 |  | 
51 | NSAAATSPKGTLPPAALESSDSAN [CAMK2B] | 5.39 ± 0.096 | 5.37 ± 0.21 |  | 
52 | SLLSKARGIDSSSVKLRGSSLFMD [WEE1] | 2.75 ± 0.2 | 2.49 ± 0.19 |  | 
53 | EVNVLNDMRDTPLHRAAFTGRKIC [OSBPL1A] | 3.19 ± 0.089 | 3.26 ± 0.31 |  | 
54 | KAPDIECVLRCSVLEIEQSMNRVK [FEM1B] | 2.3 ± 0.41 | 2.55 ± 0.51 |  | 
55 | LSPISHGNTIALFFRSLLPNYTME [TCF25] | 3.25 ± 0.47 | 2.33 ± 0.7 |  | 
56 | QLDIASQSLDQEILLKVKTEIEEE [BCL2L13] | 5.21 ± 0.37 | 5.09 ± 0.21 |  | 
57 | PFHEMFVSRGGHGQQDLFRVLKAY [TBC1D10A] | 2.25 ± 0.18 | 2.42 ± 0.085 |  | 
58 | ALVVPKGNTAVSVLMLLVALLFTG [SCAMP3] | 2.98 ± 0.75 | 2.62 ± 0.45 |  | 
59 | TSRAPSTYTYTSRPRALPCQRSRY [RSPH3] | 3.65 ± 0.15 | 3.84 ± 0.31 |  | 
60 | IAQCQDSPTSGKFRRGSGSACSLL [MCOLN1] | 3.4 ± 0.2 | 3.63 ± 0.2 |  | 
61 | SPEQQFDRSVQRLLATRIAVYLMT [TMEM175] | 2.31 ± 0.51 | 2.43 ± 0.66 |  | 
62 | YSHLGGIDYKTTTILLDGQRVKLK [RAB40A] | 3.12 ± 0.29 | 3.25 ± 0.23 |  | 
63 | TDGRSPRRSRDPGYDHLWDETLSS [PLEKHN1] | 4.33 ± 0.24 | 4.45 ± 0.23 |  | 
64 | SLDKVQRSLGPRAPSLRRHVLIHN [SERTAD3] | 3.02 ± 0.32 | 2.96 ± 0.29 |  | 
65 | SYAFGKFPTVVWTWWIMFLSTFSV [SOAT1] | 2.98 ± 0.57 | 2.97 ± 0.29 |  | 
66 | IDKSMTVVLTFITPMLNPLIYTLK [OR4A15] | 3.67 ± 0.16 | 2.8 ± 1 |  | 
67 | LPGACNIPANVSNCNWFCEGSFNG [KRT33B] | 2.33 ± 0.27 | 2.36 ± 0.22 |  | 
68 | DQKERCIIVRTTNKKYYKKFSIPD [DPCD] | 2.95 ± 0.21 | 3.06 ± 0.27 |  | 
69 | NALSKSSAPPITPECRQVLKTSRK [CHGB] | 4.68 ± 0.22 | 4.77 ± 0.15 |  | 

Row | Sequence | protein stability index [1] | protein stability index [2] | protein stability index (treatment: DMSO, c terminus: native) | protein stability index (treatment: MLN4924 1 uM, 8 h, c terminus: native)
70 | HWDGYSKGVNRKLGRTGLYPSYKV [FUT8] | 2.5 ± 0.32 | 2.53 ± 0.18 |  | 
71 | AKQRAKEAQERELRKREKAEEKER [LRRC59] | 5.45 ± 0.14 | 5.52 ± 0.36 |  | 
72 | MDRRSRAQQWRRARHNYNDLCPPI [GNAS] | 2.92 ± 0.19 | 3.13 ± 0.3 |  | 
73 | PRQADHDDHECCERVVINISGLRF [KCNA1] | 3.1 ± 0.086 | 3.33 ± 0.27 |  | 
74 | KENPECPVLKRSSESMENINSGYE [KMT2E] | 5.13 ± 0.2 | 5.01 ± 0.23 |  | 
75 | SQIQGLIGSVEEQLAQLRCEMEQQ [KRT16] | 4.387 ± 0.042 | 4.52 ± 0.28 |  | 
76 | QQKKDLEILHQQNIHQLQNRLSEL [SASS6] | 3.96 ± 0.21 | 4.13 ± 0.2 |  | 
77 | ADSLASKVTRLKSLALDIDRDAED [BET1L] | 5.3 ± 0.2 | 5.21 ± 0.21 |  | 
78 | DIKDDIYDPTYKDKEGPSPKVEYV [SCD] | 4.92 ± 0.14 | 4.68 ± 0.17 |  | 
79 | MDRFDCQYLMATFVHVYITSFIRG [CDS1] | 3.01 ± 0.56 | 3.67 ± 0.73 |  | 
80 | LLTTSGIQFKKHEEEGIETQYFAE [CNOT7] | 4.13 ± 0.13 | 4.19 ± 0.11 |  | 
81 | SMVPPSPAMAASKALGSDLDSSLA [SNAP91] | 4.59 ± 0.097 | 4.6 ± 0.26 |  | 
82 | LEFDLLIFSFGQLPLALVTWVPMF [SOAT2] | 3.17 ± 0.49 | 3.02 ± 0.33 |  | 
83 | FLSLACARGSIVATYIFIFIGETL [SPNS1] | 2.72 ± 0.2 | 2.92 ± 0.71 |  | 
84 | PQDRYKAVWLIFFMLGLGTLLPWN [SLC29A1] | 3 ± 0.27 | 3.29 ± 0.37 |  | 
85 | DFGSAAASGSFPSQVTATSGNGDF [CLINT1] | 4.95 ± 0.17 | 4.69 ± 0.26 |  | 
86 | DAETSKLIYDFIEDQGGLEAVRQE [WAS] | 4.61 ± 0.24 | 4.76 ± 0.28 |  | 
87 | ERYMCSRFFIDFPHIEEQQKKIES [TENT5D] | 3.21 ± 0.3 | 3.23 ± 0.16 |  | 
88 | RKPAAGAQSAGTQQVAAVSSVSPA [BRD3] | 4.82 ± 0.12 | 4.86 ± 0.16 |  | 
89 | SPNLNVVDGRLTYPTCGIGYPVSS [SASS6] | 3.06 ± 0.44 | 3.14 ± 0.4 |  | 
